Test results reported in patent publication US20140018288A1, “X-DING-CD4 Peptide” (priority 2012, published 2014).
Where two headings read alike, the source gives them in different places.

Legend:
[1] = Acute toxicity after intraperitoneal injection in mice; type: in vivo, mice (B6/SJL); details: 1-50 μg rX-DING-CD4^pep or 50 μg nX-DING-CD4, 7 days
Method: In the animal tests, eight-week old wild-type mice (B6/SJL) with both genders in each test group were injected intraperitoneally with 1-50 μg of rX-DING-CD4^pep or 50 μg nX-DING-CD4. The nX-DING-CD4 refers to the native form of X-DING-CD4 protein that was purified through IXC chromatography from the extracellular compartment of HIV-1 resistant T-cells. The rX-DING-CD4^pep refers to therapeutic X-DING-CD4 peptide that was expressed in E. coli and purified through Ni-affinity column. Toxicity was assessed by obvious symptoms including diarrhea, ruffled fur, abnormal gait, or loss of more than 10% weight. Animals were weighted before injection and then observed every hour for the first 10 hours after injection; then animals were weighted on 1, 3, 4 and 7 days after X-DING-CD4 administration. […] In its highest administered dose (50 μg—corresponding to 2 μg/G) we exceeded therapeutic dose blocking 95% of HIV promoter activity (by RSA assays) and 90% virus replication (by MAGI assays) (See FIGS. 2 & 3 in Example 2).

HIV-1 LTR promoter = experiment: Rapid Suppression Assay (RSA), PMA-induced HIV-1 LTR-driven luciferase in 1G5 cells; type: cell-based; details: RSA; for IC50: PMA 5 ng/ml, read-out: IC50, HIV-1 LTR promoter inhibition
Text: We applied the cell based Rapid Suppression Assay (RSA) for testing X-DING-CD4-induced inhibition of HIV-1 LTR promoter (Lesner et al., 2004; Lesner et al., 2005). Briefly, 1 G5 cells (obtained through the NIH AIDS Research and Reagent Program, Division of AIDS, NIAID, NIH) that are stably transfected with an inducible luciferase gene driven by HIV-1 LTR (Aguilar-Cordova et al., 1994) were washed in PBS, resuspended in hybridoma medium to concentration of 5×10^6cells/ml. For purpose of generating control titration curves, 100 μl aliquots of 1G5 cells were mixed with 100 μl cell culture medium either supplemented with various amount of rX-DING-CD4^pep (SEQ ID No: 1) or no rX-DING-CD4^pep, and incubated for three hours at 37° C. Subsequently, all cells were induced with phorbol 12-myristate 13-acetate (PMA) at a concentration of 5 ng/ml. Two control tubes containing 1G5 cells without rX-DING-CD4^pep treatment were resuspended in hybridoma medium with or without PMA. Three hours later cells were collected by centrifugation and lysed in the same tubes using Reporter Lysis buffer (Promega). The expression levels of luciferase protein in the lysates were determined according to the manufacturer's protocol. The X-DING-CD4^pep inhibition values were established based on the formula: [(LUC1-LUC0)×100/Z]−100; where LUC1 is the value obtained from cells induced by PMA and treated with a specific dilution of X-DING-CD4^pep; and LUC0 is the basal value obtained from the uninduced and untreated cells; Z is the absolute luciferase induction by PMA calculated as Z=LUCmax-LUCO3 where LUCmax is the value of 100% luciferase expression in PMA induced X-DING-CD4^pep untreated cells.
One aspect of the present invention is related to X-DING-CD4 peptide derivatives. Here we obtained 15 derivatives SED ID NOS: 1-15 by recombination or in vitro synthesis. We tested the biological activity of some these derivatives by rapid suppression assay (RSA). In XD-4M, the third amino acid glycine in the native X-DING-CD4 peptide was substituted with the polar amino acid glutamine. In XD-7, the two amino acids, cysteine and valine, replaced the three amino acids, glycine, serine and aspartic acid, in the native X-DING-CD4 peptide. In XD-12 and XD-12sh, the 69th amino acid glutamic acid in the native X-DING-CD4 peptide was methylated. In XD-9, the 69th amino acid glutamic acid in the native X-DING-CD4 peptide was substituted with the amino acid glutamine. The RSA procedure was similar to that described in Example 2. The inhibitory values are plotted in FIG. 5.
We performed the rapid suppression assay (RSA) which tests directly the inhibition of HIV-1 transcription (similar to the procedure described in Example 2), the MAGI assay which tests the inhibition of HIV-1 replication in a single cycle infection (similar to the procedure described in Example 2), and the HIV-1 infection inhibition assay in human PBLs.

NL4-3 HIV-1 isolate = experiment: MAGI assay of HIV-1 replication in MAGI-CCR-5 cells; type: cell-based; details: MAGI-CCR-5 cells, NL4-3 HIV-1
Method: The antiviral activity of rX-DING-CD4^pep was tested by MAGI assay. […] Subsequently, cells were exposed to rX-DING-CD4^pep treatment in the presence of DMEM supplemented with 5% fetal bovine serum, antibiotics, glutamate and […] DEAE dextran. […] Replication of virus was evaluated forty eight hours later after fixation of cells with 1% formaldehyde and 0.2% glutaraldehyde in PBS. Expression of β-galactosidase was visualized by 50 min exposure to X-GAL (5-bromo-4-chloro-3-indolyl-β-D-galactopyranoside), 0.4 mg/ml 2 mM MgCl2, 4 mM potassium ferricyanide at 37° C. After enumeration of the infected (blue) cells, all cells were lysed and subjected to the protein assay (Bio-Rad). All data were adjusted by total protein concentration and anti-viral activity was calculated as percent inhibition. The infected untreated and uninfected cells served as (+) and (−) controls to calculate 100% virus infectivity. The inhibition values for HIV-1 replication were calculated based on the formula [(R1−R0)×100/Z]-100; where R1 is the value obtained from cells infected by HIV-1 and treated with specific dilution of X-DING-CD4^pep and R^0 is the basal value obtained from the uninfected and untreated cells; Z is the absolute HIV-1 replication value calculated as Z═Rmax−R0, where Rmax is the value representing 100% of HIV-1 replication in X-DING-CD4^pep untreated cells.

[2] = 1G5 cells, listed as rX-DING-CD4

B1: MADINGGGATLPQPLYQTSGVLTAGFAPYIGVGSGKGKLAFLNNDYSQFGTGTKNVHWAGSDSKLTSTELSTYASTKQAAWGKLIQVPSVATSVAIPFNKAGSNAVDLSVDQLCGVFSGRITTWNQ (protein, listed as Homo sapiens)
chain: MADINGGGATLPQPLYQTSGVLTAGFAPYIGVGSGKGKLAFLNNDYSQFGTGTKNVHWAGSDSKLTSTELSTYASTKQAAWGKLIQVPSVATSVAIPFNKAGSNAVDLSVDQLCGVFSGRITTWNQ
In the case of B1, the “obvious symptoms of toxicity (diarrhea, ruffled fur, abnormal gait)” value [1] is reported as “Neither of rX-DING-CD4^pep treatment nor nX-DING-CD4 treatment caused any obvious symptoms”, the “concentration achieving inhibition of 90% HIV-1 LTR transcription” value (HIV-1 LTR promoter) is reported as 115.1 nM and the “IC95, HIV-1 LTR promoter inhibition, mass concentration” value (HIV-1 LTR promoter; 1G5 cells) is reported as 1.52 µg/mL. For the same molecule, the “IC95, inhibitory dose blocking 95% transcription events” value (HIV-1 LTR promoter; 1G5 cells) was “about 115.1 nM”, the IC50 (HIV-1 LTR promoter; [2]) was 8.2 nM and the IC50 (HIV-1 LTR promoter; 1G5 cells) was ~8.18 nM. The “IC95, HIV-1 LTR promoter inhibition, mass concentration” value (HIV-1 LTR promoter; [2]) was “(1.514 μg/ml)”, the “IC50, HIV-1 LTR promoter inhibition, mass concentration” value (HIV-1 LTR promoter; Table 1) was “(0.107 ug/ml)” and the “IC95, HIV-1 LTR promoter inhibition” value (HIV-1 LTR promoter; Table 1) was 116 nM. The IC50 (NL4-3 HIV-1 isolate) was 18.9 nM and the IC80 (NL4-3 HIV-1 isolate) was 151 nM.
